What was measured:
[1] = system: HMGB1-WT (Homo sapiens); assay: restriction enzyme accessibility
[2] = system: HMGB1-WT (Homo sapiens); assay: EMSA; conditions: scale: fold lower affinity than with flanking DNA

Row | Substance | K half [1] [nM] | binding signal [2]
1 | 40/40-Pst137 nucleosome | 113 | –
2 | core nucleosome (0/0) | – | 10

— article PMC11370580
